{
  "source": "patent US20220089705A1",
  "about": "(Harvard, published 2022)",
  "key": {"[1]": {"target": "T1, recombinant human FABP5/Mal1 (human, UniProt Q01469 1-135)", "T1 construct": "Bought; Biotinylated and loaded on streptavidin biosensors; also called hFABP5/hMal1; Mal1/FABP5", "T1 sequence (Q01469 whole entry)": "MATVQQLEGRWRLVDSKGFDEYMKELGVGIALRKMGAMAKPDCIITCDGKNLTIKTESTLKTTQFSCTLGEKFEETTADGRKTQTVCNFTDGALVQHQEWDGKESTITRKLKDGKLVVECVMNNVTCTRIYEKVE", "assay": "Octet RED384: biotinylated human FABP5/Mal1 on streptavidin biosensors, maximal association signal minus background", "description": "The recombinant human proteins aP2 (generated at UCB in E. coli (see method below)), hFABP3 (Sino Biological Inc.) and hFABP5/hMal1 (Sino Biological Inc.) were biotinylated in a 5-fold molar excess of EZ-Link® Sulfo-NHS-LC-Biotin (Thermo Fisher Scientific) and purified from unbound biotin using a Zeba desalting column (Thermo Fisher Scientific). All binding studies were performed at 25° C. using a ForteBio Octet RED384 system (Pall ForteBio Corp.). After a 120 s baseline step in PBS containing 0.05% Tween 20, pH7.4 (PBS-T), Dip and Read™ streptavidin (SA) biosensors (Pall ForteBio Corp.) were loaded with biotinylated recombinant haP2, hFABP3 or hFABP5/hMal1 at 60 nM for 90 s. After a 60 s stabilisation step in PBS-T, each FABP-loaded biosensor was transferred to a sample of monoclonal antibody at 800 nM and association was measured for 5 min. Biosensors were then transferred back to PBS-T for 5 min to measure dissociation. Non-specific binding of antibodies was monitored using unloaded biosensor tips. Maximal association binding i.e., once signal had plateaued, minus background binding, was plotted for each antibody/FABP combination."}, "[2]": {"target": "T2, human aP2 (fatty acid-binding protein, adipocyte, FABP4/aP2) (human, UniProt P15090 1-132, Biotinylated with Sulfo-NHS-LC-Biotin in the Octet assay. Refolded with palmitic acid after delipidation. The letters carry neither.)", "T2 construct": "also called haP2; human FABP4", "assay": "SPR, Biacore T200: antibody captured on immobilized anti-mouse IgG Fc, aP2 titrated 40 to 0.625 µM, steady state fit", "description": "(§1) The affinity of anti-aP2 binding to aP2 (recombinantly generated in E. coli as described below) was determined by biomolecular interaction analysis, using a Biacore T200 system (GE Healthcare). Affinipure F(ab′)2 fragment goat anti-mouse IgG, Fc fragment specific (Jackson ImmunoResearch Lab, Inc.) in 10 mM NaAc, pH 5 buffer was immobilized on a CMS Sensor Chip via amine coupling chemistry to a capture level between 4500-6000 response units (RU) using HBS-EP+(GE Healthcare) as the running buffer. Anti-aP2 IgG was diluted to between 1-10 μg/ml in running buffer. A 60 s injection of anti-aP2 IgG at 10 μl/min was used for capture by the immobilized anti-mouse IgG, Fc then aP2 was titrated from 25 nM to 3.13 nM over the captured anti-aP2 for 180 s at 30 μl/min followed by 300 s dissociation. The surface was regenerated by 2×60 s 40 mM HCl and 1×30 s 5 mM NaOH at 10 μl/min. The data were analyzed using Biacore T200 evaluation software (version 1.0) using the 1:1 binding model with local Rmax. […] The surface was regenerated by 1×60 s 40 mM HCl, 1×30 s 5 mM NaOH and 1×60 s 40 mM HCl at 10 μl/min. Steady state fitting was used to determine affinity values."}, "[3]": {"target": "T3, mouse aP2 (fatty acid-binding protein, adipocyte, FABP4/aP2) (mouse, UniProt P04117 1-132)", "T3 construct": "Lipid-loaded and de-lipidated preparations are the same polypeptide and are told apart under assay; also called mouse FABP4; murine aP2", "T3 sequence": "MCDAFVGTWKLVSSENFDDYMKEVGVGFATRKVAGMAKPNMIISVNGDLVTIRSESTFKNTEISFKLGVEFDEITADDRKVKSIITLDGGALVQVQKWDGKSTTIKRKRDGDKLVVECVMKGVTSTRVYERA", "assay": "assay not given; KD (M) column under 'Mouse', first of two rows (also printed as 4.14 under KD (µM))"}, "[4]": {"target": "T2, human aP2 (fatty acid-binding protein, …)", "assay": "assay not given; KD (M) column under 'Human', second of two rows (also printed as 6.44 under KD (µM))"}, "[5]": {"target": "T2, human aP2 (fatty acid-binding protein, …)", "assay": "method not stated in the sentence (FIG. 31); average binding affinity; PB1172, human aP2"}, "[6]": {"target": "T3, mouse aP2 (fatty acid-binding protein, …)", "assay": "method not stated in the sentence (FIG. 31); average binding affinity; PB1172, mouse aP2"}, "[7]": {"target": "T2, human aP2 (fatty acid-binding protein, …)", "assay": "assay not given; KD (M) column under 'Human', first of two rows (also printed as 5.62 under KD (µM))"}, "[8]": {"target": "T3, mouse aP2 (fatty acid-binding protein, …)", "assay": "assay not given; KD (M) column under 'Mouse', second of two rows (also printed as 4.99 under KD (µM))"}, "[9]": {"target": "T3, mouse aP2 (fatty acid-binding protein, …)", "assay": "assay not given; KD (M) column under 'Mouse', second of two rows (also printed as 4.71 under KD (µM))"}, "[10]": {"target": "T3, mouse aP2 (fatty acid-binding protein, …)", "assay": "method not stated in the sentence (FIG. 31); average binding affinity; PB1171, mouse aP2"}, "[11]": {"target": "T3, mouse aP2 (fatty acid-binding protein, …)", "assay": "assay not given; KD (M) column under 'Mouse', first of two rows (also printed as 5.53 under KD (µM))"}, "[12]": {"target": "T2, human aP2 (fatty acid-binding protein, …)", "assay": "SPR, Biacore T200: antibody captured on immobilized anti-mouse IgG Fc, aP2 titrated 25 to 3.13 nM, 1:1 binding model", "description": "as §1"}},
  "data": [
    {"binder": "CA33, rabbit-mouse hybrid anti-aP2 monoclonal antibody (Rabbit Ab 909) (antibody, V domains shown, also called Rabbit Antibody 909) VH: QSVEESGGRLVTPGTPLTLTCTVSGFSLSTYYMSWVRQAPGKGLEWIGIIYPSGSTYCASWAKGRFTISKASTTVDLKITSPTTEDTATYFCARPDNDGTSGYLSGFGLWGQGTLVTVSS VL: DVVMTQTPASVSEPVGGTVTIKCQASEDISRYLVWYQQKPGQPPKRLIYKASTLASGVPSRFKGSGSGTDFTLTISDLECDDAATYYCQCTYGTYAGSFFYSFGGGTEVVVE", "values": [
      {"measurement": "binding result", "setting": "[1]", "value": "no binding"},
      {"measurement": "Kd", "setting": "[2]", "value": 2.83, "unit": "µM"}
    ]},
    {"binder": "PB1172 (H3 gL11/gH19), reduced-affinity variant of H3 (antibody, mouse IgG1, V domains shown, Heavy chain W33A, Y52S; light chain W91A, relative to H3; also called 5251.mIgG1168; APP5168/PB1172) VH: QVQLQQPGAELVKPGASVKLSCKASGYTFTSNAITWVKQRPGQGLEWIGDISPGSGSTTNNEKFKSKATLTVDTSSSTAYMQLSSLTSEDSAVYYCARLRGYYDYFDFWGQGTTLTVSS VL: EVVLTQSPALMAASPGEKVTITCSVSSSISSSNLHWYQQKSETSPKPWIYGTSNLASGVPVRFSGSGSGTSYSLTISSMEAEDAATYYCQQASHYPLTFGAGTKLELK", "values": [
      {"measurement": "Kd", "setting": "[3]", "value": 4.14, "unit": "µM"},
      {"measurement": "Kd", "setting": "[4]", "value": 6.44, "unit": "µM"},
      {"measurement": "Kd", "setting": "[5]", "value": 6.03, "unit": "µM"},
      {"measurement": "Kd", "setting": "[6]", "value": 4.57, "unit": "µM"},
      {"measurement": "Kd", "setting": "[7]", "value": 5.62, "unit": "µM"},
      {"measurement": "Kd", "setting": "[8]", "value": 4.99, "unit": "µM"}
    ]},
    {"binder": "PB1171 (H3 gL1/gH20), reduced-affinity variant of H3 (antibody, mouse IgG1, V domains shown, Heavy chain W33A, Y52S, Y98F relative to H3; also called 5252.mIgG1.169; APP5169/PB1171) VH: QVQLQQPGAELVKPGASVKLSCKASGYTFTSNAITWVKQRPGQGLEWIGDISPGSGSTTNNEKFKSKATLTVDTSSSTAYMQLSSLTSEDSAVYYCARLRGFYDYFDFWGQGTTLTVSS VL: EVVLTQSPALMAASPGEKVTITCSVSSSISSSNLHWYQQKSETSPKPWIYGTSNLASGVPVRFSGSGSGTSYSLTISSMEAEDAATYYCQQWSHYPLTFGAGTKLELK", "values": [
      {"measurement": "Kd", "setting": "[9]", "value": 4.71, "unit": "µM"},
      {"measurement": "Kd", "setting": "[10]", "value": 5.12, "unit": "µM"},
      {"measurement": "Kd", "setting": "[11]", "value": 5.53, "unit": "µM"}
    ]},
    {"binder": "H3, mouse anti-aP2 monoclonal antibody (H3 gL1/gH1) (antibody, V domains shown, Mouse IgG; also called wild-type parent H3) VH: QVQLQQPGAELVKPGASVKLSCKASGYTFTSNWITWVKQRPGQGLEWIGDIYPGSGSTTNNEKFKSKATLTVDTSSSTAYMQLSSLTSEDSAVYYCARLRGYYDYFDFWGQGTTLTVSS VL: EVVLTQSPALMAASPGEKVTITCSVSSSISSSNLHWYQQKSETSPKPWIYGTSNLASGVPVRFSGSGSGTSYSLTISSMEAEDAATYYCQQWSHYPLTFGAGTKLELK", "values": [
      {"measurement": "binding result", "setting": "[1]", "value": "no binding"},
      {"measurement": "Kd", "setting": "[12]", "value": 0.0011, "unit": "µM"}
    ]}
  ]
}
